Reference: paper PMC7393355, “A FRET-based screening method to detect potential inhibitors of the binding of CNNM3 to PRL2” (Scientific Reports, 2020)

Tested on: binding of CNNM3-YPet and CyPet-PRL2 (CNNM3-PRL2 complex)
Experiment: FRET-based inhibition test of the binding of CNNM3-YPet and CyPet-PRL2
Parameters: species or system human
Conditions: CNNM3-YPet 200 nM, CyPet-PRL2 200 nM, n = 6; for FRET intensity abolished / inhibition of complex formation: pre-incubated 20 min R.T. with binding partner, TBS pH 8.0, mean
Procedure: FRET measurements were conducted in TBS (50 mM Tris–HCl (pH 8.0) and 150 mM NaCl). Proteins were mixed in 96-well plates and incubated at R.T. for 1 h. Fluorescence intensities were measured using an excitation wavelength of 435 nm and an emission wavelength of 530 nm with a Cytation 3 (BioTek).
The emission spectra were measured with each component at 200 nM using the Cytation 3 (BioTek) with 435 nm excitation (Supplementary Fig. 2), and the original data are shown in Supplementary Table 1. The FRET intensity was calculated by Eq. (1).1 IFRET=IA-raw-Dleakage-Adirect where IA-raw is the intensity measured at 530 nm with 435 nm excitation, Dleakage is the leakage of the donor emission into the acceptor wavelength (530 nm) upon donor excitation, and Adirect is the direct excitation of the acceptor with the donor wavelength (435 nm).
The inhibition of complex formation was assayed by pre-incubating the binding partner (200 nM) with inhibitory factors (1, 10 μM) for 20 min at R.T., followed by addition of the other protein (200 nM) (Figs. 3B, 4C). The effects of divalent cations (10 mM) and nucleotides (3 mM) were also assayed similarly (Fig. 5).
The peptides for the peptide inhibition test were synthesized by Shanghai Dechi Biosciences (Fig. 6C,D). The peptide sequences were as follows: peptide 1, IVQKVNNEGEGDPFYEVLG; peptide 2, […] (an S–S bond was formed between the cysteine residues, as verified by HPLC and mass spectrometry). The peptides were dissolved in TBS buffer at 10 mM before use.
FRET data were evaluated by subtracting backgrounds (fluorescence intensities of CyPet-PRL2, CNNM3-YPet and a blank well). All data analysis was performed using GraphPad Prism 6 (GraphPad Software) with the methods described in each legend.

B1: non-YPet-tagged CNNM3: purified non-fluorescence-tagged CBS domain of human CNNM3 (protein)
chain: YSDLSKGVLRCRTVEDVLTPLEDCFMLDASTVLDFGVLASIMQSGHTRIPVYEEERSNIVDMLYLKDLAFVDPEDCTPLSTITRFYNHPLHFVFNDTKLDAVLEEFKRGKSHLAIVQKVNNEGEGDPFYEVLGLVTLEDVIEEIIRSEILDE
modifications: left off: His tag (from the vector pET28a and the Ni-NTA purification), end not stated, state not stated
In the case of B1, the “FRET intensity abolished / inhibition of complex formation” value (“FRET intensity abolished / inhibition” below) (inhibitory protein 1 μM) is reported as 77.7% and the “FRET intensity abolished / inhibition” value (inhibitory protein 10 μM) is reported as 89.2%.

B2: CNNM3 CBS domain D426A mutant: CNNM3 CBS domain with D426A mutation at the PRL2-binding site (protein)
chain: YSDLSKGVLRCRTVEDVLTPLEDCFMLDASTVLDFGVLASIMQSGHTRIPVYEEERSNIVDMLYLKDLAFVDPEDCTPLSTITRFYNHPLHFVFNDTKLDAVLEEFKRGKSHLAIVQKVNNEGEGAPFYEVLGLVTLEDVIEEIIRSEILDE
modifications: left off: His tag (from the vector pET28a and the Ni-NTA purification), end not stated, state not stated
For B2, the “FRET intensity abolished / inhibition” value (inhibitory protein 10 μM) was 12.9% and the “effect of added protein on FRET intensity (in words)” value (inhibitory protein 1 and 10 μM) was “little effect on the FRET intensity”.

B3: PRL1: purified non-fluorescence protein-tagged human PRL1 (protein)
chain: MARMNRPAPVEVTYKNMRFLITHNPTNATLNKFIEELKKYGVTTIVRVCEATYDTTLVEKEGIHVLDWPFDDGAPPSNQIVDDWLSLVKIKFREEPGCCIAVHCVAGLGRAPVLVALALIEGGMKYEDAVQFIRQKRRGAFNSKQLLYLEKYRPKMRLRFKDSNGHRNNCCIQ
In the case of B3, the “FRET intensity abolished / inhibition” value (inhibitory protein 1 μM) is reported as 61.6% and the “FRET intensity abolished / inhibition” value (inhibitory protein 10 μM) is reported as 90.0%.

B4: PRL2: purified non-fluorescence protein-tagged human PRL2 (residues 1–167) (protein)
chain: MNRPAPVEISYENMRFLITHNPTNATLNKFTEELKKYGVTTLVRVCDATYDKAPVEKEGIHVLDWPFDDGAPPPNQIVDDWLNLLKTKFREEPGCCVAVHCVAGLGRAPVLVALALIECGMKYEDAVQFIRQKRRGAFNSKQLLYLEKYRPKMRLRFRDTNGHCCVQ
modifications: left off: His tag (from the vector pET28a and the Ni-NTA purification), end not stated, state not stated
For B4, the “FRET intensity abolished / inhibition” value (inhibitory protein 1 μM) was 85.5% and the “FRET intensity abolished / inhibition” value (inhibitory protein 10 μM) was 89.7%.
